Test results reported in the supplement of paper PMC10126150.
± gives the standard deviation of the averaged measurements.

These sequences were tested on ATP (assay: switch fluorescence ratio, 500 uM ATP over buffer (Cy3 cluster intensity, sum of 5 cycles each) (fold (ratio)); higher = stronger signal-on switching upon ATP binding; sequences stand for … in TCGTCGGCAGCGTCAGATGTGTATAAGAGACAGTTTTTTTTTTTTTTTTTTTTTTTTT…TC). Details: aptamer strand: ATP DNA aptamer (quencher-CACCTGGGGGAGTATTGCGGAGGAAGG + anchor), 100 nM annealed; ATP concentration: 500 uM.
Method in brief: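 For every switch-domain sequence, the fluorescence ratio is the mean of per-cluster values, each being summed target-cycle Cy3 intensity over summed buffer-cycle Cy3 intensity. Clusters outside 100-1000 RFU were excluded. On a modified Illumina MiSeq flow-cell, the Cy3-labelled switching-strand clusters were annealed to 100 nM quencher-labelled ATP aptamer, imaged in selection buffer and then after 15 min with 500 uM ATP at 22 °C. Five such cycles were run, with NaOH stripping and re-annealing between them.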
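Note: ATP exposure 15 min at 22 °C before imaging.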

| Sequence | switch fluorescence ratio |
| --- | --- |
| GTTAGGTTAT | 1 ± 0.018 |
| TGAGATCGCG | 1.004 ± 0.0018 |
| CCAATCACGG | 1.09 ± 0.012 |
| GTGTTTGGAA | 0.993 ± 0.012 |
| GGGGCTCATT | 0.983 ± 0.021 |
| CAAAATGTTC | 1.021 ± 0.0086 |
| TTGGCTCTGG | 0.987 ± 0.02 |
| GAGTGAAGGG | 1.02 ± 0.016 |
| CACGTAATTA | 1.25 ± 0.048 |
| TTCAGTATCA | 1.06 ± 0.061 |
| TGTTGTTTGA | 0.991 ± 0.016 |
| TCCATGACGC | 1.099 ± 0.0088 |
| TAATCGGGCG | 1.02 ± 0.022 |
| AGGGGGTTCC | 0.99 ± 0.033 |
| GGCCCTGCGG | 1.02 ± 0.025 |
| ACTTATTCGG | 1.02 ± 0.019 |
| ACTATTAATC | 1 ± 0.02 |
| CAAGTATGGG | 0.974 ± 0.035 |
| TTGTTTTTCC | 1.03 ± 0.057 |
| GTGTTGAGAA | 0.98 ± 0.015 |
| AGGGGTGGGA | 1.01 ± 0.02 |
| GTCTACTGCT | 1.07 ± 0.028 |
| AGTTGCCCGG | 1.006 ± 0.0068 |

| Sequence | switch fluorescence ratio |
| --- | --- |
| GCCTTCGGAA | 3.13 ± 0.065 |
| GTGAGTTTTT | 1.02 ± 0.022 |
| TTCGGGATAG | 1.07 ± 0.1 |
| AGTGTTGATG | 0.975 ± 0.051 |
| TGGGAGAAGG | 1.02 ± 0.057 |
| TAACAGAGTG | 1 ± 0.023 |
| AAGGCGGATT | 1.26 ± 0.36 |
| CTGACAGATT | 1.11 ± 0.12 |
| ATTTGCAATT | 1.03 ± 0.034 |
| TAGTACCGGT | 0.991 ± 0.029 |
| GTGACTTAGT | 1.03 ± 0.02 |
| GGTCTCAAGA | 0.993 ± 0.023 |
| AATCCGAGGA | 1.05 ± 0.054 |
| ATAGACAGCA | 1.01 ± 0.025 |
| ACCCGGCTTC | 1.024 ± 0.0077 |
| GATTTGTAAA | 0.99 ± 0.029 |
| GGAACATGGG | 1.004 ± 0.0024 |
| ACCCGTAATG | 1.75 ± 0.028 |
| ATTAAGAAGG | 1.002 ± 0.0095 |
| CGGTGAGGGG | 0.989 ± 0.011 |
| TTTCAGCT | 0.977 ± 0.013 |
| TTTGGCTGTT | 0.998 ± 0.029 |
| GAGGGAGCTT | 1.04 ± 0.026 |

| Sequence | switch fluorescence ratio |
| --- | --- |
| AGGGGTCTCA | 0.9852 ± 0.0035 |
| ACCGGGATGG | 0.994 ± 0.024 |
| TGTTTGGTC | 0.997 ± 0.013 |
| CGGGGTCAAC | 1.24 ± 0.39 |
| CGCCGGGTCC | 1.05 ± 0.02 |
| TTTCTTTATC | 0.974 ± 0.017 |
| GGAAGGAGGC | 1.02 ± 0.088 |
| CGTAAAACGC | 1.02 ± 0.03 |
| TTGGATATGT | 0.9573 ± 0.0047 |
| TAGGGTATGA | 1.01 ± 0.02 |
| AGGGGGTTAT | 1.01 ± 0.03 |
| TATAGGGTTG | 0.999 ± 0.033 |
| CGGGTTCAGA | 1.051 ± 0.0054 |
| TTTTGAGGAC | 1.034 ± 0.0035 |
| GACATTTTGG | 1.03 ± 0.042 |
| TGCAAGTGGT | 1.54 ± 0.75 |
| TTTTAGGGTA | 1.03 ± 0.017 |
| CGTAAGTGCA | 1 ± 0.024 |
| TATCTATCCG | 0.985 ± 0.039 |
| TATGGGTACT | 1 ± 0.027 |
| GTGGGGTAGA | 1.05 ± 0.021 |
| GATATTGGGC | 1.02 ± 0.024 |
| GGCAAAGCGT | 1.03 ± 0.025 |

| Sequence | switch fluorescence ratio |
| --- | --- |
| GGTAGGTGGC | 0.952 ± 0.027 |
| GTGTTATCAC | 0.984 ± 0.054 |
| GTGTAATTAG | 0.982 ± 0.035 |
| TTTTTCAACC | 1.02 ± 0.017 |
| AAGAGTTGTA | 1.01 ± 0.019 |
| TCCAACGGGT | 1.03 ± 0.059 |
| TCTCCATTTA | 1.04 ± 0.015 |
| TAGGAAATTT | 1.03 ± 0.087 |
| ACGACGGTAG | 1.02 ± 0.029 |
| GATATCAACG | 1 ± 0.047 |
| TGGCTTGAGT | 1.12 ± 0.19 |
| GATGGATCGG | 1.01 ± 0.017 |
| ACTATATAAT | 1.08 ± 0.014 |
| GATTTGGAGT | 0.985 ± 0.018 |
| TATGCATTAA | 1.01 ± 0.021 |
| AGTAGGGGAA | 0.995 ± 0.035 |
| GATAGGGGGT | 1.01 ± 0.061 |
| TTGACGGTGA | 1.06 ± 0.033 |
| GGGACGACAG | 1.04 ± 0.031 |
| GATACTCAGC | 1.06 ± 0.0058 |
| CCTGGATTTC | 1.01 ± 0.077 |
| CCGAAATTTT | 1.05 ± 0.016 |
| GAGCTCTTTC | 1.01 ± 0.017 |

| Sequence | switch fluorescence ratio |
| --- | --- |
| TTAGACGATT | 0.998 ± 0.025 |
| TTCTTTCGCG | 0.9467 ± 0.0023 |
| GGATGCATAT | 0.9894 ± 0.0044 |
| GGGTACGTTC | 1.01 ± 0.023 |
| TTAAGGCATT | 1.06 ± 0.03 |
| TCATTAAGTT | 1.08 ± 0.094 |
| ATATTTGTAT | 1 ± 0.012 |
| TCATTTTAGT | 0.99 ± 0.026 |
| ATTCGGTTTT | 0.97 ± 0.013 |
| ATTTTATATT | 1.02 ± 0.032 |
| TATGGTTG | 0.99 ± 0.057 |
| GCTTCAGGGG | 1.09 ± 0.12 |
| TTGACGATGA | 1.04 ± 0.025 |
| AGGATGATGC | 0.979 ± 0.026 |
| TAAAAAGCGG | 1.01 ± 0.054 |
| GGGGAACTTC | 1.05 ± 0.045 |
| CTCTCGGCCG | 1.03 ± 0.12 |
| CCGGGTCGGG | 1.006 ± 0.0049 |
| TTCCCGCTGT | 1.75 ± 0.023 |
| GGAGTCCGTT | 1.02 ± 0.046 |
| TCTGTTCA | 1.005 ± 0.0075 |
| ATTTTTTGAG | 1 ± 0.034 |
| CGGTACTGAT | 1.0316 ± 0.00064 |

| Sequence | switch fluorescence ratio |
| --- | --- |
| TAACGCTGCC | 1.25 ± 0.12 |
| TGATTTTGTC | 0.9932 ± 0.0028 |
| ATAAGGGCTT | 0.929 ± 0.11 |
| TAGGTAGGGG | 0.99 ± 0.036 |
| AGCAGAAAAT | 1.01 ± 0.025 |
| TCATGGCACG | 1.02 ± 0.019 |
| AGGGGATAAG | 0.992 ± 0.029 |
| ATGGTTAAAG | 0.996 ± 0.026 |
| TTATACAGTG | 1 ± 0.031 |
| ATGGTGATAG | 0.992 ± 0.011 |
| GTGTTGTATT | 0.988 ± 0.015 |
| TTGGTGCTTG | 1 ± 0.041 |
| GTTACCGTTT | 1.02 ± 0.053 |
| AGTGGTGGTA | 0.998 ± 0.018 |
| TGATATAAGC | 1.03 ± 0.015 |
| TAGCTACTTC | 1.73 ± 0.93 |
| TAACAATTAA | 1.03 ± 0.058 |
| TCGCCAATTG | 1.0649 ± 0.00052 |
| CCTACATTG | 1 ± 0.02 |
| TTCAGTCGAG | 0.979 ± 0.02 |
| AAGGTGATAG | 1 ± 0.019 |
| TTCGTTTGCA | 1.38 ± 0.64 |
| GATTTGATTT | 0.991 ± 0.037 |

| Sequence | switch fluorescence ratio |
| --- | --- |
| TTACGACTGT | 1.004 ± 0.0014 |
| ATAAGACTCT | 0.9964 ± 0.0081 |
| TGTTGCGCTT | 1.033 ± 0.007 |
| TTGAGCGGGG | 0.9876 ± 0.005 |
| CGAGGGAGGC | 1.011 ± 0.0095 |
| AGTCGGGTCT | 1.05 ± 0.083 |
| TGGTCCATTT | 1.014 ± 0.0091 |
| TAATCAGTAG | 1.02 ± 0.015 |
| GCTGCTGGCC | 0.999 ± 0.044 |
| ATATTGTCAT | 0.962 ± 0.015 |
| CAGGACACTA | 1.03 ± 0.026 |
| GGTGGCAGGA | 1.01 ± 0.032 |
| GGTGGAGCCC | 0.962 ± 0.04 |
| AGGTGGGGCT | 0.9811 ± 0.0089 |
| TATAGGCCGG | 0.991 ± 0.02 |
| TCAAATTAGC | 0.986 ± 0.023 |
| CTTAGGGGTA | 0.999 ± 0.043 |
| TTCACTCTTT | 1.017 ± 0.0099 |
| ACTCCTTGCT | 1.24 ± 0.018 |
